The source of these data is paper PMC9197078, “The small nonstructural protein NP1 of human bocavirus 1 directly interacts with Ku70 and RPA70 and facilitates viral DNA replication” (PLoS Pathogens, 2022).

To fix the notation:
B1: glutathione S-transferase (GST)-tagged HBoV1 NP1 (GST-NP1) (natural protein)
chain: MSSGNMKDKHRSYKRKGSPERGERKRHWQTTHHRSRSRSPIRHSGERGSGSYHQEHPISHLSSCTASKTSDQVMKTRESTSGKKDNRTNPYTVFSQHRASNPEAPGWCGFYWHSTRIARDGTNSIFNEMKQQFQQLQIDNKIGWDNTRELLFNQKKTLDQKYRNMFWHFRNNSDCERCNYWDDVYRRHLANVSSQTEADEITDEEMLSAAESMEADASN
notes: also called pGST-NP1; source: E. coli BL21/DE3 pLysS, purified
B2: MBP-Ku70-β-barrel^His (aa266-439) (domain or fragment, UniProt P12956 266-439, looked up)
chain: DIVISVGIYNLVQKALKPPPIKLYRETNEPVKTKTRTFNTSTGGLLLPSDTKRSQIYGSRQIILEKEETEELKRFDDPGLMLMGFKPLVLLKKHHYLRPSLFVYPEESLVIGSSTLFSALLIKCLEKEVAALCRYTPRRNIPPYFVALVPQEEELDDQKIQVTPPGFQLVFLPF
notes: also called MBP-β-barrel^His; Ku70 β-barrel domain; source: E. coli BL21/DE3 pLysS, purified

What all share (test): BLI; BLItz; His-tagged protein at different concentrations mounted on Ni-NTA biosensors, dipped into 4 μM GST-NP1 or control GST^Flag; Kinetic buffer 50 mM Tris-HCl pH 7.4, 150 mM NaCl
Holding throughout (conditions): both partners purified

One experiment has as its target T1, RPA70^His (UniProt P27694 1-616).
T1 construct: source: E. coli BL21/DE3 pLysS, purified

The target in a further experiment is T2, RPA70-AB^His (aa181-422) (UniProt P27694 181-422).
T2 construct: also called middle AB domain; source: E. coli BL21/DE3 pLysS, purified

Experiment [1] addresses T3, hexahistidine (His)-tagged Ku70 (Ku70^His) (UniProt P12956 1-609).
T3 construct: also called full length Ku70; Ku70 monomer; source: E. coli BL21/DE3 pLysS, purified

The target in experiment [2] is B1.

T1 sequence (P27694 whole entry): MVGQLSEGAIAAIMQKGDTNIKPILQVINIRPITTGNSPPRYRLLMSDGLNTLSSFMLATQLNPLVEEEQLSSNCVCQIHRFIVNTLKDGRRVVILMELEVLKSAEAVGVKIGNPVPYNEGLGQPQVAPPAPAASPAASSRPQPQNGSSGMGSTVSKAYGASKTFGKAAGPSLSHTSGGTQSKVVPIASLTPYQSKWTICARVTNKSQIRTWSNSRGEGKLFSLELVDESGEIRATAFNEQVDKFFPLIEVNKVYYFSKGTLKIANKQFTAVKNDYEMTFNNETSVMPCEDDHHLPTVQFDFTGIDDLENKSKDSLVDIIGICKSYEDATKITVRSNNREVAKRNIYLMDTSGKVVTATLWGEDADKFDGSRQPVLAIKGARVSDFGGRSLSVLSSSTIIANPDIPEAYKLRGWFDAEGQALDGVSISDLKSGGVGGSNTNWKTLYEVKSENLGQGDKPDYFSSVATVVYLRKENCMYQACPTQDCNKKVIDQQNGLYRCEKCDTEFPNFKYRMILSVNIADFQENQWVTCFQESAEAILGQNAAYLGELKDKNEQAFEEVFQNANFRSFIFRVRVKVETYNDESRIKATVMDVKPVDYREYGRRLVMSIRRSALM
T3 sequence (P12956 whole entry): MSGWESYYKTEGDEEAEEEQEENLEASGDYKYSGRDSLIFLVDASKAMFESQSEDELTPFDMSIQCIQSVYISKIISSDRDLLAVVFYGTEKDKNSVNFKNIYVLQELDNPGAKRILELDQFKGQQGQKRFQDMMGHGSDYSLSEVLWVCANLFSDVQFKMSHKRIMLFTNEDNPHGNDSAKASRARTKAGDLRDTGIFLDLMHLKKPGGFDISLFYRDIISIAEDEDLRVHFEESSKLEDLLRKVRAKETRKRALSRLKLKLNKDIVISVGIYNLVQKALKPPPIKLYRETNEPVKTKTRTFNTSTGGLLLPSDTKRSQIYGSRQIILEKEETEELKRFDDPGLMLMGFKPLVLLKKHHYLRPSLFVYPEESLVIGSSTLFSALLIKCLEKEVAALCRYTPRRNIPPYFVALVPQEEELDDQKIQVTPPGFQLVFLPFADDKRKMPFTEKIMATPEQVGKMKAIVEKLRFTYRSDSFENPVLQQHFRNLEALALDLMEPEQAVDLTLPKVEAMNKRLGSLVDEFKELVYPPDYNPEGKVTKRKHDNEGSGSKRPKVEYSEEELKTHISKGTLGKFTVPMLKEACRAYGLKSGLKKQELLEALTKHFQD
T2 sequence (P27694 181-422): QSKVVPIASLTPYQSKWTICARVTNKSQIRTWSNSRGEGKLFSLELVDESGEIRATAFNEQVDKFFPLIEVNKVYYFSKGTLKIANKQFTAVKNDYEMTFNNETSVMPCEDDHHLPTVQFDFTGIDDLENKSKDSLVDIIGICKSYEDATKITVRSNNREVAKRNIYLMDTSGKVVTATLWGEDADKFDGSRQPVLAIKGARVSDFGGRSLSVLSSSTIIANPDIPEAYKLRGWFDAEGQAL

On to B1, for which the values for the Kd (with RPA70^His; with RPA70-AB^His (aa181-422); in experiment [1]) were 122 nM, 526 nM and 95 nM, respectively.

In experiment [2], B2 came in with an equilibrium dissociation constant (Kd) of 722 nM.
